Experimental data reported in patent US20140271623A1.

Molecular target: C1q (Complement Technologies, Tyler, Tex.) (UniProt P02745)
Experiment: cell-based or functional assay

Chain of UniProt P02745 (P02745 23-245 limits assumed, chain 1 of 3): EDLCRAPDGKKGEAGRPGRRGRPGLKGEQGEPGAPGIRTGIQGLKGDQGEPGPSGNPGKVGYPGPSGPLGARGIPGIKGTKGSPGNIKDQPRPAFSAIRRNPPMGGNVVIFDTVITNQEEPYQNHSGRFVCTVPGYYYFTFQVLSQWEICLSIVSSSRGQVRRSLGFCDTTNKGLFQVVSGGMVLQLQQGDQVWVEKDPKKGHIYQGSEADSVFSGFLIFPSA
Chain of UniProt P02745 (P02746 28-253 limits assumed, chain 2 of 3, further chain): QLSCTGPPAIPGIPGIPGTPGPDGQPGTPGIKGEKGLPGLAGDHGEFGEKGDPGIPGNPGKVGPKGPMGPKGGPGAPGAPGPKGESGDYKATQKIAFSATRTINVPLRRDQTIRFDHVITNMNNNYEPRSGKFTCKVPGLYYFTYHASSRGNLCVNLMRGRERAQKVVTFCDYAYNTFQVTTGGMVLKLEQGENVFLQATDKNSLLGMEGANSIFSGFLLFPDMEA
Chain of UniProt P02745 (P02747 29-245 limits assumed, chain 3 of 3, further chain): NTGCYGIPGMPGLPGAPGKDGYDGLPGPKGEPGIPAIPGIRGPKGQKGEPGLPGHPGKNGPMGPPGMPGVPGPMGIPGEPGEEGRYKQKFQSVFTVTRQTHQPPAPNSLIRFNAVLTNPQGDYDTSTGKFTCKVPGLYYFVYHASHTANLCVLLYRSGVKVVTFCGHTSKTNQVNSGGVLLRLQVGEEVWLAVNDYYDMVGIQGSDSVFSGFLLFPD

| EC50 values [µg/mL] for C1q requirement for induction of CDC of Daudi cells | efficacy of C1q utilization, fold improvement by carboxypeptidase B treatment | Substance |
| --- | --- | --- |
| 4.8 µg/mL | – | Anti-CD38 antibody (005), collected K2 isoform (two heavy-chain C-terminal lysines per antibody) |
| 0.8 µg/mL | < 2 fold | Anti-CD38 antibody (005), unfractionated preparation after carboxypeptidase B treatment |
| 1.3 µg/mL | – | Anti-CD38 antibody (005), unfractionated preparation isolated from hybridoma supernatant |
